According to PMC11178898, “A clade of receptor-like cytoplasmic kinases and 14-3-3 proteins coordinate inositol hexaphosphate accumulation” (Nature Communications, 2024):

B1: GRF4, Split-LUC fusion [Arabidopsis thaliana] / PI-PLC2, Split-LUC fusion [Arabidopsis thaliana] (parent)
chain 1: MAAPPASSSAREEFVYLAKLAEQAERYEEMVEFMEKVAEAVDKDELTVEERNLLSVAYKNVIGARRASWRIISSIEQKEESRGNDDHVTTIRDYRSKIESELSKICDGILKLLDTRLVPASANGDSKVFYLKMKGDYHRYLAEFKTGQERKDAAEHTLTAYKAAQDIANAELAPTHPIRLGLALNFSVFYYEILNSPDRACNLAKQAFDEAIAELDTLGEESYKDSTLIMQLLRDNLTLWTSDMQDESPEEIKEAAAPKPAEEQKEI
chain 2: MSKQTYKVCFCFRRRFRYTASEAPREIKTIFEKYSENGVMTVDHLHRFLIDVQKQDKATREDAQSIINSASSLLHRNGLHLDAFFKYLFGDNNPPLALHKVHHDMDAPISHYFIFTGHNSYLTGNQLSSDCSEVPIIDALKKGVRVIELDIWPNSNKDDIDVLHGMTLTTPVGLIKCLKAIRAHAFDVSDYPVVVTLEDHLTPDLQSKVAEMVTEIFGEILFTPPVGESLKEFPSPNSLKRRIIISTKPPKEYKEGKDVEVVQKGKDLGDEEVWGREVPSFIQRNKSEAKDDLDGNDDDDDDDDEDKSKINAPPQYKHLIAIHAGKPKGGITECLKVDPDKVRRLSLSEEQLEKAAEKYAKQIVRFTQHNLLRIYPKGTRVTSSNYNPLVGWSHGAQMVAFNMQGYGRSLWLMQGMFRANGGCGYIKKPDLLLKSGSDSDIFDPKATLPVKTTLRVTVYMGEGWYFDFRHTHFDQYSPPDFYTRVGIAGVPGDTVMKKTKTLEDNWIPAWDEVFEFPLTVPELALLRLEVHEYDMSEKDDFGGQTCLPVWELSEGIRAFPLHSRKGEKYKSVKLLVKVEFV

Variants of: B1
Test: Split-LUC
Settings: with PI-PLC2, Split-LUC fusion [Arabidopsis thaliana]; P4: nluc-GRF4 S242D, cluc-PI-PLC2, 35S::IPCK1-flag co-infiltrated (1:1:2); Total cps 150882, Areas 56.84; parent value is P1, which the printed layout grid …; parent: 1.67e+03

response (cps (average))	Variant
2650	chain 1 MAAPPASSSAREEFVYLAKLAEQAERYEEMVEFMEKVAEAVDKDELTVEERNLLSVAYKNVIGARRASWRIISSIEQKEESRGNDDHVTTIRDYRSKIESELSKICDGILKLLDTRLVPASANGDSKVFYLKMKGDYHRYLAEFKTGQERKDAAEHTLTAYKAAQDIANAELAPTHPIRLGLALNFSVFYYEILNSPDRACNLAKQAFDEAIAELDTLGEESYKDSTLIMQLLRDNLTLWTDDMQDESPEEIKEAAAPKPAEEQKEI [chain 1 S242D]

Same assay, conditions: with PI-PLC2, Split-LUC fusion [Arabidopsis thaliana]; P3: nluc-GRF4 S242A, cluc-PI-PLC2, 35S::IPCK1-flag co-infiltrated (1:1:2); Total cps 91336, Areas 49.23; parent value is P1, which the printed layout grid …; parent: 1.67e+03

response (cps (average))	Variant
1860	chain 1 MAAPPASSSAREEFVYLAKLAEQAERYEEMVEFMEKVAEAVDKDELTVEERNLLSVAYKNVIGARRASWRIISSIEQKEESRGNDDHVTTIRDYRSKIESELSKICDGILKLLDTRLVPASANGDSKVFYLKMKGDYHRYLAEFKTGQERKDAAEHTLTAYKAAQDIANAELAPTHPIRLGLALNFSVFYYEILNSPDRACNLAKQAFDEAIAELDTLGEESYKDSTLIMQLLRDNLTLWTADMQDESPEEIKEAAAPKPAEEQKEI [chain 1 S242A]
